Measured values: patent US12404345B2, “Humanized antibodies against iRHOM2” (SCIRHOM GMBH, priority 2021, dated 2025)
Positions count from the first letter of the chain named.

T1: dog iRhom2 (Canis lupus familiaris, UniProt Q00M95)
T1 construct: pMSCV-dog-iR2-FL-WT-T7 encoding dog iRhom2 full length wild type; expressed in transfected cells; host or cells: immortalized iRhom1/2-/- DKO mouse embryonic fibroblasts, pMSCV retroviral infection
T1 sequence (Q00M95 1-827): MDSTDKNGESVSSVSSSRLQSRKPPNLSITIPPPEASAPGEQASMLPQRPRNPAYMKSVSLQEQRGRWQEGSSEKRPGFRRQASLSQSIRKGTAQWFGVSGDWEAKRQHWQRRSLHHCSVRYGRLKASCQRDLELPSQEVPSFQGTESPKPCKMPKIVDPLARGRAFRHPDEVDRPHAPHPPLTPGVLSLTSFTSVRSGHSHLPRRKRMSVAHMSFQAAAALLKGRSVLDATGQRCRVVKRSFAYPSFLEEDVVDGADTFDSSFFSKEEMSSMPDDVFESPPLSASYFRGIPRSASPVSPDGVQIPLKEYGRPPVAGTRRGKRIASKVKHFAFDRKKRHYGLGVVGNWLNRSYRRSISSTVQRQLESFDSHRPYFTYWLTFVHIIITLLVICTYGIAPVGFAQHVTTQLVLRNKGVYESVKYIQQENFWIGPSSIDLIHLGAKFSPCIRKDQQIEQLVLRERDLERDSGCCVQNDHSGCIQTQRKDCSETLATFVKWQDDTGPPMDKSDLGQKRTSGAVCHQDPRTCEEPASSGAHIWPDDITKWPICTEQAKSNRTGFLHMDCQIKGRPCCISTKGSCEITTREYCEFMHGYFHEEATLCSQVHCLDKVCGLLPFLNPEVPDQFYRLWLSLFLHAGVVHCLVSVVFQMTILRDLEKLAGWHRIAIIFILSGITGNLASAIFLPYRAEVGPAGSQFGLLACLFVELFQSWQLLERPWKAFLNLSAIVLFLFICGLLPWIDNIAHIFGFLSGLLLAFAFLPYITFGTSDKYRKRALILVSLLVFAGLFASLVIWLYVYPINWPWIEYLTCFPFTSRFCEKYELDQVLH

B1: 16-B-03: humanized antibody binding human iRhom2; HCVD SEQ ID NO 1, LCVD SEQ ID NO 5 (antibody, V domains shown)
VH: QVTLRESGPALVKPTQTLTLTCTFSGFSLSTFALGVGWIRQPPGKALEWLAHIWWDDDKYYNPALKSRLTISKDTSKNQVVLTITNMDPVDTATYYCARITTYYYGMDYWGQGTLVTVSS
VL: EIVMTQSPDFQSVTPKEKVTITCRASQSIGNHLHWYQQKPDASPKLLIKYASQSISGVPSRFSGSGSGTDFTLTINSLEAEDAATYFCQQSYQWPLTFGQGTKLEIK
modifications: antibody sequences
B2: 16-B-07: humanized antibody binding human iRhom2; HCVD SEQ ID NO 17, LCVD SEQ ID NO 21 (antibody, V domains shown)
VH: B1 VH with D57E
VL: B1 VL
modifications: antibody sequences
B3: 16-B-05: humanized antibody binding human iRhom2; HCVD SEQ ID NO 9, LCVD SEQ ID NO 13 (antibody, V domains shown)
VH: B1 VH with D57E
VL: B1 VL with Q93N
modifications: antibody sequences
B4: 23-B-04: humanized antibody binding human iRhom2; HCVD SEQ ID NO 25, LCVD SEQ ID NO 29 (antibody, V domains shown)
VH: QVTLRESGPALVKPTQTLTLTCTFSGFSLSTFGMGVGWIRQPPGKALEWLAHIWWDDEKYYNSALKSRLTISKDTSKNQVVLTITNMDPVDTATYYCARISNYGSNYWYFNVWGQGTLVTVSS
VL: AIQLTQSPSSLSASVGDRVTITCRASSSVSYMYWYQQKPGKAPKVLIYDTSNLASGVPSRFSGSGSGTDYTLTISSLQPEDFATYYCQQWNAYPLTFGQGTKLEIK
modifications: antibody sequences
B5: 42-B-02: humanized antibody binding human iRhom2; HCVD SEQ ID NO 33, LCVD SEQ ID NO 37 (antibody, V domains shown)
VH: B4 VH with M34R, S101Q, N111D
VL: B4 VL with S28R, V29I, Y33F, A92S
modifications: antibody sequences
B6: 42-B-04: humanized antibody binding human iRhom2; HCVD SEQ ID NO 41, LCVD SEQ ID NO 45 (antibody, V domains shown)
VH: B4 VH with M34R, S101Q, N111D
VL: B4 VL with S28R, V29I, Y33F
modifications: antibody sequences

What follows are molecules tested against T1, dog iRhom2 (assay: FACS cross-reactivity on MEF-DKO-Dog-iR2-FL-WT-T7 cells). Conditions: antibody at 3 μg/ml.
Format: binding
From the text: Next, iRhom1/2−/− DKO MEFs stably expressing a tagged form of rhesus monkey, cynomolgus monkey, dog or rabbit iRhom2 were generated in order to determine cross-reactivity of the antibodies of the invention with the respective orthologue of iRhom2. iRhom1/2−/− DKO MEFs stably expressing a tagged form of rhesus monkey, cynomolgus monkey, dog or rabbit iRhom1 were generated to confirm specificity for iRhom2 versus iRhom1 of these species.
In brief, on day 1, Phoenix-ECO cells (American Type Culture Collection, USA) were seeded on 6-well tissue culture plates (Greiner, Germany) in standard growth medium at 8×10^5 cells per well and kept overnight at 37° C., 5% CO2. On day 2, the medium was replaced by fresh medium supplemented with chloroquine (Sigma-Aldrich, USA) at a final concentration of 25 μM. Applying the calcium phosphate method, cells were transfected with 2 μg/ml of pMSCV (Clontech, USA) empty vector, pMSCV-rhesus-iR2-FL-WT-T7 encoding rhesus monkey iRhom2 full length wild type C-terminally tagged with 3 consecutive copies of the T7 epitope, pMSCV-cyno-iR2-FL-WT-T7 encoding cynomolgus monkey iRhom2 full length wild type C-terminally tagged with 3 consecutive copies of the T7 epitope, pMSCV-dog-iR2-FL-WT-T7 encoding dog iRhom2 full length wild type C-terminally tagged with 3 consecutive copies of the T7 epitope or pMSCV-rabbit-iR2-FL-WT-T7 encoding rabbit iRhom2 full length wild type C-terminally tagged with 3 consecutive copies of the T7 epitope, respectively, and were kept at 37° C., 5% CO2. After 7 hours, the transfections were stopped by replacing cell supernatants with standard growth medium lacking chloroquine, and cells were incubated at 37° C., 5% CO2 to allow virus production overnight. In parallel, immortalized iRhom1/2−/− DKO MEFs as target cells for retroviral infection were seeded on 6-well tissue culture plates (Greiner, Germany) in standard growth medium at 1×10^5 cells per well and were also kept overnight at 37° C., 5% CO2. On day 3, the supernatants of Phoenix-ECO cells releasing pMSCV, pMSCV-rhesus-iR2-FL-WT-T7, pMSCV-cyno-iR2-FL-WT-T7, pMSCV-dog-iR2-FL-WT-T7 or pMSCV-rabbit-iR2-FL-WT-T7 ecotrophic virus, respectively were collected, filtered with 0.45 μm CA filters, and supplemented with 4 μg/ml of polybrene (Sigma-Aldrich, USA). Upon removal of medium from the immortalized iRhom1/2−/− DKO MEFs, the virus containing supernatants were added to the target cells for 4 hours at 37° C., 5% CO2 for first infection. Simultaneously, Phoenix-ECO cells were re-incubated with fresh medium, which, after another 4 hours, was filtered and used for the second infection of the respective target cell populations, again in the presence of 4 μg/ml of polybrene. Likewise, a third, but overnight infection cycle was performed. On day 4, virus containing cell supernatants were replaced by fresh standard growth medium. From day 5 onwards, cells were grown in the presence of 2 mg/ml of geneticin (G418, Thermo Fisher Scientific, USA) for the selection of immortalized MEF-DKO-EV control cells stably infected with pMSCV empty vector, pMSCV-rhesus-iR2-FL-WT-T7 cells stably expressing rhesus monkey iRhom2 full length wild type C-terminally tagged with 3 consecutive copies of the T7 epitope, pMSCV-cyno-iR2-FL-WT-T7 cells stably expressing cynomolgus monkey iRhom2 full length wild type C-terminally tagged with 3 consecutive copies of the T7 epitope, pMSCV-dog-iR2-FL-WT-T7 cells stably expressing dog iRhom2 full length wild type C-terminally tagged with 3 consecutive copies of the T7 epitope or pMSCV-rabbit-iR2-FL-WT-T7 cells stably expressing rabbit iRhom2 full length wild type C-terminally tagged with 3 consecutive copies of the T7 epitope, respectively. Upon propagation, cells were stocked for future usage. In parallel, iRhom1/2−/− DKO MEFs stably expressing a tagged form of rhesus monkey, cynomolgus monkey, dog or rabbit iRhom1 were generated in an analogous manner. […]

Row | binding to dog iRhom2 on MEF-DKO-Dog-iR2-FL-WT-T7 cells | Molecule
1 | Strong binding | B1
2 | recognize dog iRhom2 | B2
3 | recognize dog iRhom2 | B3
4 | recognize dog iRhom2 | B4
5 | recognize dog iRhom2 | B5
6 | recognize dog iRhom2 | B6
